Measurements from article PMC7822796, “Pleiotropic function of the SQUAMOSA PROMOTER-BINDING PROTEIN-LIKE gene TaSPL14 in wheat plant architecture”.

T1: GST-TaSPL14 (UniProt A0A3B6LP29 1-396)
T1 sequence: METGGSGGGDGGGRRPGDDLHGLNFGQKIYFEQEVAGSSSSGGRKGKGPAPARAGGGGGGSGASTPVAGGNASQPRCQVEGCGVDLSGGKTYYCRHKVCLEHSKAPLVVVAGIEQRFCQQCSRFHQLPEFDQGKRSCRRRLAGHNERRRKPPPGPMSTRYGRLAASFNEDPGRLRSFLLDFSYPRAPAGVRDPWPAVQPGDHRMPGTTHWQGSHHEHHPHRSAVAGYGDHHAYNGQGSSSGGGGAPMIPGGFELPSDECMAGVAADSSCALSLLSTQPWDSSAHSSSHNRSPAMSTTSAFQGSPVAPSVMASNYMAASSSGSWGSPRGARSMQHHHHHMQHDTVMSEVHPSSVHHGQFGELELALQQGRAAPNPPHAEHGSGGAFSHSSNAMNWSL

B1: TaEIL1 promoter probe (dsDNA)
DNA 1: GCCAAAACTTTTAGTACAACTTAAGTCTTT
DNA 2: AAAGACTTAAGTTGTACTAAAAGTTTTGGC
B2: TaRAP2.11 promoter probe (dsDNA)
DNA 1: ATGACTTGATGCGGTACAATAATATTAAGC
DNA 2: GCTTAATATTATTGTACCGCATCAAGTCAT
B3: TaERF1 promoter probe (dsDNA)
DNA 1: AGAAAAGAAAAAAGTACGATCATTCCTCGT
DNA 2: ACGAGGAATGATCGTACTTTTTTCTTTTCT

target: T1, GST-TaSPL14; assay: EMSA; 10 mM ZnCl2, poly dI-dC; competed by unlabeled probe; EMSA: 1x binding buffer (printed as 100 mM Tris, 500 mM KCl, 10 mM DTT, pH 7.5), 10% glycerol, 0.5 mM EDTA, 10 mM ZnCl2, 50 ng/uL poly dI-dC, 20 uL, 30 min at room temperature, 6% native PAGE; conditions: protein: recombinant; tags: GST (N-terminal, pGEX6P-1); label: 5' biotin; blunt

Binding result, binds:
B1
B2
B3
